Experimental findings from article PMC12647877, “The SMC Hinge is a Selective Gate for Obstacle Bypass” (Nature Communications, 2025) are described below.

The target in data set [1] is T1, scSmc4(598-923) condensin hinge/coiled coil with V721C and M821C (S. cerevisiae, UniProt Q12267 598-923, V721C | M821C).
T1 construct: Smc4, S. cerevisiae condensin, residues 598-923; also called scSmc4 hinge; source: Sf9, co-purified with scSmc2 hinge (Strep-Tactin XT, cation exchange, SEC)
T1 sequence (looked up): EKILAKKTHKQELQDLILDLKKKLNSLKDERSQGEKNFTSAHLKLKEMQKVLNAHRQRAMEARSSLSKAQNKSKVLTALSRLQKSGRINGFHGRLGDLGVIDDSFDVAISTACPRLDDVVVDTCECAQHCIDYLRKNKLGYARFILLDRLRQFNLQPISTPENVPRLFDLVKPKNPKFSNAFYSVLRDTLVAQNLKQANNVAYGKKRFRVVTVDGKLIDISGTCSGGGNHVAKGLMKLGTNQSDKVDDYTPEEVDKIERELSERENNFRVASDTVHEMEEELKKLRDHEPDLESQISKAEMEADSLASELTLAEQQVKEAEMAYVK
Kind of data set: cross-linking; cysteine cross-linking with BMOE (0.58 mM, 6 min on ice) of purified scSmc2/4 hinge, 1.4 µM in CB buffer (50 mM NaCl, 1 mM MgCl2, 50 mM HEPES pH 7.5, 1 mM TCEP, 5 % glycerol); SDS-PAGE. The settings on record: both partners purified.

Data set [2] concerns the molecule itself. Kind of data set: cross-linking; cysteine cross-linking with BMOE (1 mM, 45 s, quenched with DTT) of purified hinge/coiled coil constructs in 20 mM Tris-HCl, 50 mM NaCl; SDS-PAGE, and denaturing agarose gels of entrapped ssDNA circles.

B1: scSmc2(443-740) condensin hinge/coiled coil with S560C and K639C (domain or fragment, S. cerevisiae, UniProt P38989 443-740, looked up)
chain: KDNELNVKHVKQCQETCDKLRARLVEYGFDPSRIKDLKQREDKLKSHYYQTCKNSEYLKRRVTNLEFNYTKPYPNFEASFVHGVVGQLFQIDNDNIRYATALQTCAGGRLFNVVVQDCQTATQLLERGRLRKRVTIIPLDKIYTRPISSQVLDLAKKIAPGKVELAINLIRFDESITKAMEFIFGNSLICEDPETACKITFHPKIRARSITLQGDVYDPEGTLSGGSRNTSESLLVDIQKYNQIQKQIETIQADLNHVTEELQTQYATSQKTKTIQSDLNLSLHKLDLAKRNLDANPS
notes: Smc2, S. cerevisiae condensin, residues 443-740; also called scSmc2 hinge; source: Sf9, co-purified with scSmc4 hinge (Strep-Tactin XT, cation exchange, SEC)
As to B1, the binding result in data set [1] is recorded as “binds”.

B2: bsuSmc(400-776; C437S, R558C, N634C) hinge/coiled coil (domain or fragment, B. subtilis, UniProt P51834 400-776, looked up)
chain: QLLDDQMSQSAVTLQRLADNNEKHLQERHDISARKAASETEFARIEQEIHSQVGAYRDMQTKYEQKKRQYEKNESALYQAYQYVQQARSKKDMLETMQGDFSGFYQGVKEVLKAKERLGGIRGAVLELISTEQKYETAIEIALGASAQHVVTDDEQSACKAIQYLKQNSFGRATFLPLSVIRDRQLQSRDAETAARHSSFLGVASELVTFDPAYRSVIQNLLGTVLITEDLKGACELAKLLGHRYRIVTLEGDVVNPGGSMTGGAVKKKNNSLLGRSRELEDVTKRLAEMEEKTALLEQEVKTLKHSIQDMEKKLADLRETGEGLRLKQQDVKGQLYELQVAEKNINTHLELYDQEKSALSESDEERKVRKRKLEEE
notes: Smc (chromosome partition protein Smc), Bacillus subtilis, residues 400-776; also called bsuSmc hinge; B. subtilis Smc hinge; source: E. coli BL21(DE3) Gold, purified (as the scSmc5/6 hinge constructs: HisTrap, SEC)
B2: the binding result in data set [2] is “binds”.
